Results as given in US20240101668A1 (WUGEN, published 2024).

T1: huCLL1-K244-Avi-Tev-His (human, UniProt Q5QGZ9 65-265)
T1 construct: extracellular domain
T1 sequence (looked up): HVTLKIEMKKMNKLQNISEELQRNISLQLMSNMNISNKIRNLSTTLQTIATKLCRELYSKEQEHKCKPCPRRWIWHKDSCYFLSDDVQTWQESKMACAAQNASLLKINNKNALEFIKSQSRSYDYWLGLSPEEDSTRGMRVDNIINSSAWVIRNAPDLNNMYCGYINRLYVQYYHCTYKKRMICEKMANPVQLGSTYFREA

T2: huCLL1-Q244-Avi-Tev-His (human, UniProt Q5QGZ9 65-265)
T2 construct: extracellular domain; also called CLL-1 K244Q
T2 sequence (looked up): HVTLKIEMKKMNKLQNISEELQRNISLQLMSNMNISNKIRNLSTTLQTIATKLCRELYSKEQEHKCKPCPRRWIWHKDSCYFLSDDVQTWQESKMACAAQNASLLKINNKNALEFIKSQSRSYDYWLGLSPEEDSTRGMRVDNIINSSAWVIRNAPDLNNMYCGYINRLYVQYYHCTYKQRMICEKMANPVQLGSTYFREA


Assays:
[1] = target: T3, huCD33-G69 stably expressed on Jurkat cells (human, UniProt P20138 18-364); test: FACS on cells;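 note: fixed Jurkat lines probed with myc-tagged scFv periplasmic extracts, anti-myc PE flow cytometry, PE MFI fold binned − <2, + 2–10, ++ 10–30, +++ >30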
T3 construct: whole, on cells; >200,000 receptors per cell; also called CD33 Mutant; CD33 R69G
T3 sequence (P20138 18-364 R69G): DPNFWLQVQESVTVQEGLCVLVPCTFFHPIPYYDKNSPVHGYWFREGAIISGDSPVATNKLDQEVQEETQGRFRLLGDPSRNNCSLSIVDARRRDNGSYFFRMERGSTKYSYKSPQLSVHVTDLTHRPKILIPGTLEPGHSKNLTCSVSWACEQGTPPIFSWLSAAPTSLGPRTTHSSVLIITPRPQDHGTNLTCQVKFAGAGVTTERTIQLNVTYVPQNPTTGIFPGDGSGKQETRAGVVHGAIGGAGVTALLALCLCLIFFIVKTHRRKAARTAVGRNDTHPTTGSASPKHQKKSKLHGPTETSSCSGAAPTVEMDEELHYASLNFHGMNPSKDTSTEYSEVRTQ
Method: (§1) Jurkat cells were engineered to stably express either the huCD33-R69 or huCD33-G69 variant at >200,000 receptors per cell. Parental, huCD33-R69, and huCD33-G69 Jurkat cell lines were stained with differing levels of CellTrace Violet Cell Proliferation Kit (ThermoFisher, cat. #C34557) to barcode each cell line. Barcoded Jurkat cell lines were fixed with paraformaldehyde and incubated with myc-labeled scFv periplasmic extracts and a secondary anti-myc PE-conjugated monoclonal antibody. Appropriate positive and negative controls were used. Stained cells were analyzed by flow cytometry (CytoFLEX, Beckman Coulter, Inc.) and binding was assessed by change in PE mean fluorescence intensity (MFI) of the barcoded cell populations.
(§2) Data is disclosed below in Table 16c, reporting FACS fold change over parental as (−), indicating <2 fold; (+), indicating 2-10 fold; (++), indicating 10-30 fold; and (+++), indicating >30 fold.

[2] = target: T4, huCD33-R69 stably expressed on Jurkat cells (human, UniProt P20138 18-364); test: FACS on cells;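 note: fixed Jurkat lines probed with myc-tagged scFv periplasmic extracts, anti-myc PE flow cytometry, PE MFI fold binned − <2, + 2–10, ++ 10–30, +++ >30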
T4 construct: whole, on cells; >200,000 receptors per cell; also called CD33 WT; CD33^ARG69
T4 sequence (P20138 18-364): as the sequence (P20138 18-364 R69G) above, with G52R counted along it
Method: as §1, §2

[3] = target: T5, huCD33-G69-Fc recombinant protein (human, UniProt P20138 18-259); test: BLI;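 note: biolayer interferometry: scFvs captured from periplasmic extracts on anti-V5-loaded streptavidin biosensors, antigen association for 2 min, buffer dissociation for 5 min, 1:1 Langmuir fit giving off-rate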
T5 construct: extracellular domain; also called CD33 R69G
T5 sequence (P20138 18-259 R69G): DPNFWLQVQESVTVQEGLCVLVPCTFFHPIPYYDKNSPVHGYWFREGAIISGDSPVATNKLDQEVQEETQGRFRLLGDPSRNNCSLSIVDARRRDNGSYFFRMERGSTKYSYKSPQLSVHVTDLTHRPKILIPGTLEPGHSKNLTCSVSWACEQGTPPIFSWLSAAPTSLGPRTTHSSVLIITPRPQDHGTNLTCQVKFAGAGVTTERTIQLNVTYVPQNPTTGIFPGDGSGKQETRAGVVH
Method: Discovered scFvs were analyzed for binding to huCD33-R69-His or huCD33-G69-Fc recombinant proteins (for anti-CD33 scFvs; for CLL-1 scFvs, huCLL1-K244-Avi-Tev-His or huCLL1-Q244-Avi-Tev-His were used; for FLT3, huFLT3-T227-His or huFLT3-M227-Fc were used) using BLI on a ForteBio Octet HTX instrument. Streptavidin-coated biosensors were loaded with biotinylated anti-V5 tag monoclonal antibody for 5 min and were then quenched and blocked with 20 μM amine-PEG2-Biotin for 5 min. scFvs were captured on biosensors from scFv clone periplasmic extracts. huCD33 (or huCLL-1, or huFLT3) proteins were then associated with the captured scFvs for 2 minutes, followed by dissociation with buffer (1×HBST [10 mM HEPES pH 7.4, 150 mM NaCl, 0.05% Tween-20], 1 g/L BSA) for 5 minutes. […] Data was fitted with 1:1 Langmuir equation and off-rate values were reported.

huCLL1-K244-Avi-Tev-His = target: T1, huCLL1-K244-Avi-Tev-His; test: BLI
huCLL1-Q244-Avi-Tev-His = target: T2, huCLL1-Q244-Avi-Tev-His; test: BLI

Row | Binder | FACS geometric mean fold change over Jurkat parental [1] [fold] | FACS geometric mean fold change over Jurkat parental [2] [fold] | binding result [3] | binding result (huCLL1-K244-Avi-Tev-His) | binding result (huCLL1-Q244-Avi-Tev-His)
1 | Polypeptide No. 92 (scFv, V domains shown, scFv) VH: QVQLVQSGAEVKKPGASVKVSCKASGYTFTNHYMHWVRQAPGQGLEWMGIINPSGGSTSYAQKFQGRVTMTRDTSTSTVYMELSSLRSEDTAVYYCASAEVGATHYGMDVWGQGTTVTVSS VL: DIVMTQSPLSLPVTPGEPASISCRSSQSLLHSNGYNYLDWYLQKPGQSPQLLIYAASSLQSGVPDRFSGSGSGTDFTLKISRVEAEDVGVYYCMQALHPPTFGQGTKVEIKR | 2 to 10 | 2 to 10 | binds |  | 
2 | Polypeptide No. 93 (scFv, V domains shown, scFv) VH: QVQLVQSGAEVKKPGASVKVSCKASGYSFTNYDISWVRQAPGQGLEWMGWVNPNSGNTGYAQKFQGRVTMTRDTSTSTVYMELSSLRSEDTAVYYCAKDAPYYYDSSGYYGVFDYWGQGTLVTVSS VL: DIVMTQSPLSLPVTPGEPASISCRSSQSLLHSNGYNYLDWYLQKPGQSPQLLIYAASSLQSGVPDRFSGSGSGTDFTLKISRVEAEDVGVYYCMQALQTPLTFGQGTRLEIKR | 2 to 10 | 2 to 10 | binds |  | 
3 | Polypeptide No. 94 (scFv, V domains shown, scFv) VH: QVQLVQSGAEVKKPGASVKVSCKASGYTFTTYDINWVRQAPGQGLEWMGWISGYNGNTGYAQKFQGRVTMTRDTSTSTVYMELSSLRSEDTAVYYCAKDMGYGDYPDAFDIWGQGTMVTVSS VL: DIVMTQSPLSLPVTPGEPASISCRSSQSLLHSNGYNYLDWYLQKPGQSPQLLIYAASTLQSGVPDRFSGSGSGTDFTLKISRVEAEDVGVYYCMQALQIPITFGQGTKVEIKR | 10 to 30 | 2 to 10 | binds |  | 
4 | Polypeptide No. 95 (scFv, V domains shown, scFv) VH: QVQLVQSGAEVKKPGSSVKVSCKASGYSFTTYDINWVRQAPGQGLEWMGRMNPNSGNTGYAQKFQGRVTITADESTSTAYMELSSLRSEDTAVYYCARVVHGMDVWGQGTTVTVSS VL: not shown | 2 to 10 | 2 to 10 | binds |  | 
5 | Polypeptide No. 96 (scFv, V domains shown, scFv) VH: QVQLVQSGAEVKKPGASVKVSCKASGGTFSSYAISWVRQAPGQGLEWMGWMNPSSANTGYAQKFQGRVTMTRDTSTSTVYMELSSLRSEDTAVYYCAKDEMELLTAFDIWGQGTMVTVSS VL: DIQMTQSPSSLSASVGDRVTITCRASQSIGSWLAWYQQKPGKAPKLLIYGVSTLHSGVPSRFSGSGSGTDFTLTISSLQPEDFATYYCQQSYSTPPTFGQGTKLEIKR | > 30 | > 30 | binds |  | 
6 | Polypeptide No. 97 (scFv, V domains shown, scFv) VH: EVQLLESGGGLVQPGGSLRLSCAASGFTFRSYWMTWVRQAPGKGLEWVSVISGSGDNTYYADSVKGRFTISRDNSKNTLYLQMNSLRAEDTAVYYCARETTWGMDVWGQGTTVTVSS VL: DIQMTQSPSSLSASVGDRVTITCRASQSISSYLNWYQQKPGKAPKLLIYDASNLETGVPSRFSGSGSGTDFTLTISSLQPEDFATYYCQQSSIIPLTFGGGTKVEIKR | 2 to 10 | 10 to 30 | binds |  | 
7 | Polypeptide No. 98 (scFv, V domains shown, scFv) VH: QVQLVQSGAEVKKPGASVKVSCKASGGSFSSSAINWVRQAPGQGLEWMGWMNPNSGNTGYAQKFQGRVTMTRDTSTSTVYMELSSLRSEDTAVYYCARDRGIAVAGASPYYYYGMDVWGQGTTVTVSS VL: DIQMTQSPSSLSASVGDRVTITCRASQDIGSYLAWYQQKPGKAPKLLIYAASSLQSGVPSRFSGSGSGTDFTLTISSLQPEDFATYYCHQSYSTPFTFGQGTKLEIKR | > 30 | 10 to 30 | binds |  | 
8 | Polypeptide No. 99 (scFv, V domains shown, scFv) VH: QVQLVQSGAEVKKPGSSVKVSCKASGYTFSDYHIHWVRQAPGQGLEWMGWMNPNSGNTGYAQKFQGRVTITADESTSTAYMELSSLRSEDTAVYYCARTHSSGYYYWFDPWGQGTLVTVSS VL: DIQMTQSPSSLSASVGDRVTITCRASQGISNNLNWYQQKPGKAPKLLIYQASNKDTGVPSRFSGSGSGTDFTLTISSLQPEDFATYYCQQSYSSPPTFGQGTKVEIKR | 10 to 30 | > 30 | binds |  | 
9 | Polypeptide No. 101 (scFv, V domains shown, scFv) VH: EVQLLESGGGLVQPGGSLRLSCAASGFTFSSYGVHWVRQAPGKGLEWVSAISGDGGDTYYADSVKGRFTISRDNSKNTLYLQMNSLRAEDTAVYYCARDTWDYSNYGGIDYWGQGTLVTVSS VL: DIQMTQSPSSLSASVGDRVTITCRASQNINTFLNWYQQKPGKAPKLLIYAASTLQSGVPSRFSGSGSGTDFTLTISSLQPEDFATYYCQQYDSFPLTFGGGTKVEIKR | > 30 | > 30 | binds |  | 
10 | Polypeptide No. 102 (scFv, V domains shown, scFv) VH: EVQLLESGGGLVQPGGSLRLSCAASGFTFSNAWMSWVRQAPGKGLEWVSGIGGSGGTIYYADSVKGRFTISRDNSKNTLYLQMNSLRAEDTAVYYCAREVAAPLHPFGYYYYMDVWGKGTTVTVSS VL: not shown | 10 to 30 | 10 to 30 | binds |  | 
11 | Polypeptide No. 103 (scFv, V domains shown, scFv) VH: QVQLVQSGAEVKKPGASVKVSCKASGYTFTGYYMHWVRQAPGQGLEWMGWMNPDSGDTNYAQNFQGRVTMTRDTSTSTVYMELSSLRSEDTAVYYCATTRQPHYGMDVWGQGTTVTVSS VL: not shown | 10 to 30 | 10 to 30 | binds |  | 
12 | Polypeptide No. 104 (scFv, V domains shown, scFv) VH: EVQLLESGGGLVQPGGSLRLSCAASGFTFSSSWMHWVRQAPGKGLEWVAVISYDGSEEYYADSVKGRFTISRDNSKNTLYLQMNSLRAEDTAVYYCARLTDYGDYVLGRYLSDWGQGTLVTVSS VL: DIQMTQSPSSLSASVGDRVTITCRASQGISSYLAWYQQKPGKAPKLLIYAASSLQSGVPSRFSGSGSGTDFTLTISSLQPEDFATYYCQQSYSIPPTFGQGTKLEIKR | > 30 | > 30 | binds |  | 
13 | Polypeptide No. 105 (scFv, V domains shown, scFv) VH: EVQLLESGGGLVQPGGSLRLSCAASGFTFNNAWMTWVRQAPGKGLEWVAVISYDGSNKYYADSVKGRFTISRDNSKNTLYLQMNSLRAEDTAVYYCARMAVAGKGAFDIWGQGTMVTVSS VL: DIQMTQSPSSLSASVGDRVTITCRASQSIYSWLAWYQQKPGKAPKLLIYAASTLQSGVPSRFSGSGSGTDFTLTISSLQPEDFATYYCQQTYSTPVTFGQGTKVEIKR | 10 to 30 | 10 to 30 | binds |  | 
14 | Polypeptide No. 200 (scFv, V domains shown, scFv) VH: QVQLVQSGAEVKKPGASVKVSCKASGYTFTDYYMHWVRQAPGQGLEWMGWMNPNSGNTGYAQKFQGRVTMTRDTSTSTVYMELSSLRSEDTAVYYCAADDTKSPYGMDVWGQGTMVTVSS VL: DIQMTQSPSSLSASVGDRVTITCQASQDISNYLNWYQQKPGKAPKLLIYEASSLQSGVPSRFSGSGSGTDFTLTISSLQPEDFATYYCQQTYSPPPTFGQGTKLEIKR |  |  |  | binds | no binding
